Measurements from publication PMC13137973 (2026).

Target: T1, Biotinylated human TNFR2 protein (human, UniProt P20333-1 23-257, biotin (commercial biotinylation kit))
T1 chain: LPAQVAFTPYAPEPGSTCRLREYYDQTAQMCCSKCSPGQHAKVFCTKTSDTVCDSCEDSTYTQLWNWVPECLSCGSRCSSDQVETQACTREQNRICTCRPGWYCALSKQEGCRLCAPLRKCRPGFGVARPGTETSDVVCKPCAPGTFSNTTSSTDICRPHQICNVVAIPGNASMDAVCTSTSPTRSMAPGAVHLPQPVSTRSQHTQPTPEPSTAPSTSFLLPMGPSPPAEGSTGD
Assay: BLI

B1: human immunodeficiency virus 1 (HIV-1) (group M, subtype B, Isolate MN) gp120 Protein (natural protein)
chain: not shown
  koff: 0.00623 s⁻¹
